Data: PMC5183740

Target: SA-M2e (streptavidin core fused to three consecutive copies of M2e of A/PARIS/2590/2009 (H1N1)) (Streptomyces avidinii | influenza A virus A/PARIS/2590/2009 (H1N1))
Assay: SDS-PAGE of unheated samples

Question: With “SA-M2e (streptavidin core fused to three consecutive copies of M2e of A/PARIS/2590/2009 (H1N1))” as the substance, how does the stoichiometry N read?
Answer: The stoichiometry N was 4.
